According to the supplement of paper PMC9170038:

Tested on: K4 kissing-loop RNA reporter
Assay: apparent KD of K4 kissing-loop reporter; higher = weaker reporter binding
Settings: Eterna round: R107
Description: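 RNA-MaP round R107: designed RNA switches with theophylline, tryptophan, arginine or FMN aptamers are transcribed on-chip within common flanks. They are titrated with a labelled K4 kissing-loop RNA reporter in RNA-MaP buffer (100 mM Tris pH 7.5, 80 mM KCl, 4 mM MgCl2), without ligand or with the indicated ligand. Median apparent KD per design.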

[1] = input ligand: theophylline 20 uM
[2] = input ligand: tryptophan 2.4 mM
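Further: bound reporter read as fluorescence of individual clusters on recovered sequencing chips by microscopy, with normalized cluster intensities fitted with a binding model.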

| Sequence | apparent KD of K4 kissing-loop reporter (input ligand: FMN 200 uM) | apparent KD of K4 kissing-loop reporter (input ligand: arginine 13.2 mM) | apparent KD of K4 kissing-loop reporter (input ligand: none) | apparent KD of K4 kissing-loop reporter [1] | apparent KD of K4 kissing-loop reporter [2] |
| --- | --- | --- | --- | --- | --- |
| UGGAUAUAGUGAUGUUAUAUAGAGAUGGAUACCAGCAAAGAGAAUUGCCCUUGGCAGCCGAAAGAAGUAUCAUUAGAGAAGAAUG [ExTheophyl.Af] | 285 nM | 221 nM | 278 nM | 277 nM | 206 nM |
| AAAAUAGAUCAGUGAUGUUGGUGUCUGGAUACCAGCGAUAAUAGUCGCCCUUGGCAGCCAUGGACGUACAAAAUAAGUACGUCCU [MatMod 20 - Jieux - Same State - Theophylline A] | 487 nM | 239 nM | 369 nM | 285 nM | 347 nM |
| UGACUGGAUGGAAGGAGCGCUAAACUCCUAGUGAUGUUAGGGAAACGAGACAAAGUCUCGAAGCAGGUAGGUCGCCAUCUAGUCU [FiskerMod 14 - Jieux - Same State - Arginine B] | 176 nM | 134 nM | 158 nM | 146 nM | 155 nM |
| GCAGUGAUGUUGCGCGGGUACGGUAGAGUACGAGGACCGGUACGGCCGCCACUCGUACGGAACUGGCUAAUUUAUGGAAUGGUGA [IV] | 377 nM | 198 nM | 313 nM | 350 nM | 213 nM |
| UGUGGAGAAUAUGAUACCAGCAGUGAGAGAGAGGAAGUAUAGUGAUGUUAUAUGAGAGAAUGCCCUUGGCAGCAUAAGAAGAAGG [SSTheophylB.D] | 216 nM | 155 nM | 170 nM | 277 nM | 186 nM |
| AUUUUUUUAUCAGGAUAUUAGUGAUGUUUGUUUUUGUUAGUGAUGUUGAUAUUUGUUUUAUGUAUUUAAGAAGGGAUUGAGAUGU [sfsmullin] | 46.4 nM | 15.5 nM | 28.2 nM | 19.9 nM | 42.4 nM |
| GGAUAGGACAGAGGAUAUGGACAGUCUACAAAGUAGGCUGAAAAUCCUUGAAUGGAAGUGAUGUUUCCAGAAGGCUGUCCUAUCG [FmnBX 20 - #SwitchBubble #StaticStem #Palindromic] | 558 nM | 145 nM | 165 nM | 164 nM | 150 nM |
| AAUAUAAAGUCGGCCGCCACUGGAUUUAUAUUUGUUAAAUCUGGAUCAAAGUGAUGUUUUGAGUCCAGGACCGGGACAAUUGUUA [JR_ExcTryptoB_Sub001] | 123 nM | 117 nM | 120 nM | 122 nM | 203 nM |
| UGUCAUUGGUCUGAUACCAGUUGGGACGAAUACGUCCAACUGGAGUGAUGUUCCUAAAACAACCCUUGGCAGCAGACCGAUGACU [TheoBS 13 #SwitchBubble 13 #StaticStem] | 870 nM | 782 nM | 1040 nM | 638 nM | 750 nM |
| GCCGUACGCAUGGAUACCAGUCUACAUCGCAGUGAUGUUGCGUAGUUCAGAUAGAUUGCCGACCCUUGGCAGCCAUGCGUACGGC | 133 nM | 109 nM | 111 nM | 109 nM | 114 nM |
| GCUAUGGUAGGAAGGAGCGCUUACUCGGUAAUAAGAGUGAUGUUCGAUACCGAGUAUUUAUAGCAGGUAGGUCGCCUACUAUAGC [Arginine B K4 5] | 238 nM | 209 nM | 195 nM | 253 nM | 227 nM |
| AUCCGGAGUGCGGCCGCCACUAUCGGAUAGAGUGAUGUUCUAUCCGGCCUUAAAGGCGCGAACGAUAGGACCGGGCACUCUAAAU [Quatinti] | 121 nM | 124 nM | 136 nM | 128 nM | 122 nM |
| AAUAAUGAUGUUUAGGAAAGUAAAAUGGAAGGAGCGUGCGAAAGCACAGGUAGGUCGCCAGUGAUGUUGGAACCUGAGCAUCAAA [#SwitchBubble 19 #K4Late] | 907 nM | 633 nM | 836 nM | 925 nM | 757 nM |
| CCGCCGGUCGGAAGGAGCGCACGCCAGAGUGAUGUUCUGGCGCAGGCAUUUAGUGCCCGCGUGCAGGUAGGUCGCCGAUUCUGGC [Arlaaa] | 341 nM | 310 nM | 423 nM | 234 nM | 270 nM |
| CACUUACGUAGUGAUGUUACGAUCUCUGAUACCAGACAACUCUAAGUCCCUUGGCAGCAGUCAUUUUGCUUAGUAUUUACUCAAA [JR_ExcTheophyA_Sub016] | 679 nM | 650 nM | 791 nM | 605 nM | 512 nM |
| UGUUAUGUAUCAGGAUAUUAGUGAUGUUUGUUUAUGUUAGUGAUGUUGAUAUUUGUUUUAUGUAUUUAAGAAGGGAUUGAGAAGU [ffcfxmullin] | 62.1 nM | 21.4 nM | 45.6 nM | 30.2 nM | 49.3 nM |
| AAAAUAAUCCAGUGAUGUUGGUGUCCAGAUACCAGCGACGAAAGUCGCCCUUGGCAGCUGUGGACGUACAAAAUAAGUACGUCCU | 476 nM | 331 nM | 559 nM | 251 nM | 431 nM |
| UUGGAGUGAUGUUCCAUGUCUUGAGCCGAAGGAGCGCCUUUCUAGGCAGGUAGGUCGCGGCAGAAGGUACCAGUGAUGUUGGAAA [Same State Arginine A GF9] | 161 nM | 225 nM | 283 nM | 222 nM | 164 nM |
| AAGUCAUAGGCAGGAUAUGCAUAGUAAUAAGGCAAUAUCUACGUAUAGAGUGAUGUUUUGUACCAGGCAGAAGGGCUACAUCAGU [FMN B Excl V9 (+4A/C)] | 635 nM | 407 nM | 514 nM | 554 nM | 424 nM |
| CCUCACGUAGGACUAGUGAUGUUAGACUACCGAGGACCGGUACGGCCGCCACUCGUCGUACAAGAUAACCUUCCGCCAGUAUACA | 113 nM | 91.8 nM | 99.9 nM | 83.6 nM | 108 nM |
| AUUGCACCUGCGGCCGCCACUCACUCCGGGCUGCUGGCCAGUGAUGUUGGUACGGCUGCCGGUUAGAGGACCGGGCAGGAGCUAA [Esage] | 106 nM | 113 nM | 107 nM | 106 nM | 91.3 nM |
| UAUAGCGUCAGAAGGAGCGUGAGUAUAACAUGGCUGGAGUGAUGUUCCAGGAGUUAAUACUCACAGGUAGGUCGCUGACUCCUGG [Arg B SS t2] | 173 nM | 125 nM | 92.8 nM | 150 nM | 174 nM |
